Laboratory results from patent US20200407436A1 (published 2020).

Legend:
mature human TGF-beta 2 [1] = molecular target: T1, mature human TGF-beta 2 (human, UniProt P61812 303-414); assay: SPR Biacore T200, human TGF-beta amine-coupled (~20 RU), E. coli derived Fab as analyte; heterogeneous fit, component 2 (ka2; believed unoccluded)
T1 construct: also called TGFb2; TGFB2
T1 sequence: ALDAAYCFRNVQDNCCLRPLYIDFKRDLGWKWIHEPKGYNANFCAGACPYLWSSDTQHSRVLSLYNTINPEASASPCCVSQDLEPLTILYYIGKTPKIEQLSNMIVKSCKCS
Procedure: (§1) Human TGF-β isoforms 1, 2, and 3 (Peprotech) were immobilised on CMS Series S chip via amine coupling chemistry on Flowcell 2, 3 and 4 (respectively) to a level of approximately 20 RU. HBS-EP buffer (10 mM HEPES pH 7.4, 0.15 M NaCl, 3 mM EDTA, 0.05% Surfactant P20, GE Healthcare) was used as the running buffer. […] The surface was regenerated by 2×10 μL injection of 10 mM HCl at a flowrate of 10 uL/min.
(§2) Background subtraction binding curves were analysed using the T200 evaluation software (version 1.0; GE Healthcare) following standard procedures. Kinetic parameters were determined using heterogeneous fitting algorithm with RI=0), as described in Example 3, and the values are provided in Table 4.

mature human TGF-beta 3 [2] = molecular target: T2, mature human TGF-beta 3 (human, UniProt P10600 301-412); assay: as above
T2 construct: also called TGFb3; TGFB3
T2 sequence: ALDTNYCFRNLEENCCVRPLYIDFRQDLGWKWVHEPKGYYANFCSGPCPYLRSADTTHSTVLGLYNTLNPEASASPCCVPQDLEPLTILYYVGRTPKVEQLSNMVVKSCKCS
Procedure: as §1, §2

mature human TGF-beta 1 [3] = molecular target: T3, mature human TGF-beta 1 (human, UniProt P01137 279-390); assay: as above
T3 construct: Bought recombinant protein (Peprotech); also called TGFb1; TGFB1
Procedure: as §1, §2

mature human TGF-beta 2 [4] = molecular target: T1, mature human TGF-beta 2; assay: SPR Biacore T200, human TGF-beta amine-coupled (~20 RU), E. coli derived Fab as analyte; heterogeneous fit, component 2 (kd2; believed unoccluded)
Procedure: as §1, §2

mature human TGF-beta 3 [5] = molecular target: T2, mature human TGF-beta 3; assay: as above
Procedure: as §1, §2

mature human TGF-beta 1 [6] = molecular target: T3, mature human TGF-beta 1; assay: as above
Procedure: as §1, §2

[7] = molecular target: TGF-beta produced and activated by BxPC3 cells; assay: cell-based or functional assay
mature human TGF-beta 3 [8] = molecular target: T2, mature human TGF-beta 3; assay: cell-based or functional assay
mature human TGF-beta 2 [9] = molecular target: T1, mature human TGF-beta 2; assay: SPR Biacore T200, human TGF-beta amine-coupled (~20 RU), E. coli derived Fab as analyte; heterogeneous fit, component 2 (KD2; believed unoccluded)
Procedure: as §1, §2

mature human TGF-beta 3 [10] = molecular target: T2, mature human TGF-beta 3; assay: as above
Procedure: as §1, §2

mature human TGF-beta 1 [11] = molecular target: T3, mature human TGF-beta 1; assay: as above
Procedure: as §1, §2

mature human TGF-beta 2 [12] = molecular target: T1, mature human TGF-beta 2; assay: SPR Biacore T200, human TGF-beta amine-coupled (~20 RU), E. coli derived Fab as analyte; heterogeneous fit, component 1 (KD1; believed occluded)
Procedure: as §1, §2

mature human TGF-beta 3 [13] = molecular target: T2, mature human TGF-beta 3; assay: as above
Procedure: as §1, §2

mature human TGF-beta 1 [14] = molecular target: T3, mature human TGF-beta 1; assay: as above
Procedure: as §1, §2

mature human TGF-beta 2 [15] = molecular target: T1, mature human TGF-beta 2; assay: SPR Biacore T200, human TGF-beta amine-coupled (~20 RU), E. coli derived Fab as analyte; heterogeneous fit, component 1 (ka1; believed occluded)
Procedure: as §1, §2

mature human TGF-beta 3 [16] = molecular target: T2, mature human TGF-beta 3; assay: as above
Procedure: as §1, §2

mature human TGF-beta 1 [17] = molecular target: T3, mature human TGF-beta 1; assay: as above
Procedure: as §1, §2

mature human TGF-beta 2 [18] = molecular target: T1, mature human TGF-beta 2; assay: cell-based or functional assay
mature human TGF-beta 3 [19] = molecular target: T2, mature human TGF-beta 3; assay: cell-based or functional assay; remark: listed apart in the source
mature human TGF-beta 1 [20] = molecular target: T3, mature human TGF-beta 1; assay: cell-based or functional assay

T3 sequence (P01137 279-390 limits assumed): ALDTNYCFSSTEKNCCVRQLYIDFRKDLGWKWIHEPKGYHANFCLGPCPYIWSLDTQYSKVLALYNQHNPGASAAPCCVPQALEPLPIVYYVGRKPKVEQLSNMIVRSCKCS

kon (mature human TGF-beta 2 [1]): 904000 M⁻¹ s⁻¹ | kon (mature human TGF-beta 3 [2]): 2e+06 M⁻¹ s⁻¹ | kon (mature human TGF-beta 1 [3]): 704000 M⁻¹ s⁻¹ | koff (mature human TGF-beta 2 [4]): 0.00017 s⁻¹ | koff (mature human TGF-beta 3 [5]): 0.00339 s⁻¹ | koff (mature human TGF-beta 1 [6]): 5.56e-05 s⁻¹ | Geometric mean IC50, BxPC3 and HEK-Blue TGF-beta reporter gene co-culture assay [7]: 3.95 nM | Geo Mean IC50, Collagen I &III deposition, RPTEC mono-culture + TGFB3 (mature human TGF-beta 3 [8]): 81.2 nM | Geo Mean IC50, Collagen V deposition, RPTEC mono-culture + TGFB3 (mature human TGF-beta 3 [8]): 191 nM | Geo Mean IC50, Fibronectin deposition, RPTEC mono-culture + TGFB3 (mature human TGF-beta 3 [8]): 82.1 nM | IC50 (N = 1), Collagen I &III deposition, RPTEC mono-culture + TGFB3 (mature human TGF-beta 3 [8]): 64.3 nM | IC50 (N = 1), Collagen V deposition, RPTEC mono-culture + TGFB3 (mature human TGF-beta 3 [8]): 141 nM | IC50 (N = 1), Fibronectin deposition, RPTEC mono-culture + TGFB3 (mature human TGF-beta 3 [8]): 51.5 nM | IC50 (N = 2), Collagen I &III deposition, RPTEC mono-culture + TGFB3 (mature human TGF-beta 3 [8]): 124 nM | IC50 (N = 2), Collagen V deposition, RPTEC mono-culture + TGFB3 (mature human TGF-beta 3 [8]): 336 nM | IC50 (N = 2), Fibronectin deposition, RPTEC mono-culture + TGFB3 (mature human TGF-beta 3 [8]): 140 nM | IC50 (N = 3), Collagen I &III deposition, RPTEC mono-culture + TGFB3 (mature human TGF-beta 3 [8]): 67.2 nM | IC50 (N = 3), Collagen V deposition, RPTEC mono-culture + TGFB3 (mature human TGF-beta 3 [8]): 147 nM | IC50 (N = 3), Fibronectin deposition, RPTEC mono-culture + TGFB3 (mature human TGF-beta 3 [8]): 76.8 nM | Kd (mature human TGF-beta 2 [9]): 0.196 nM | Kd (mature human TGF-beta 3 [10]): 1.72 nM | Kd (mature human TGF-beta 1 [11]): 0.0808 nM | Kd (mature human TGF-beta 2 [12]): 3.67 nM | Kd (mature human TGF-beta 3 [13]): 15.7 nM | Kd (mature human TGF-beta 1 [14]): 9.48 nM | kon (mature human TGF-beta 2 [15]): 57700 M⁻¹ s⁻¹ | kon (mature human TGF-beta 3 [16]): 93200 M⁻¹ s⁻¹ | kon (mature human TGF-beta 1 [17]): 74900 M⁻¹ s⁻¹ | Geometric mean IC50, HEK-Blue TGF-beta reporter gene assay (mature human TGF-beta 2 [18]): 0.01 nM | Geometric mean IC50, HEK-Blue TGF-beta reporter gene assay (mature human TGF-beta 3 [19]): 0.475 nM | Geometric mean IC50, HEK-Blue TGF-beta reporter gene assay (mature human TGF-beta 1 [20]): 0.074 nM
B1: humanised antibody 4856 Fab graft gL3gH13 (Fab, V domains shown)
VH: EVQLVESGGGLVKPGGSLRLSCAASGFSLSSYDMSWVRQAPGKGLEWIGIIYGGSGSTWYASWAKGRFTISRDSAKNSVYLQMNSLRAEDTAVYYCARGRDAGAGGSRNGYSLWGQGTLVTVSS
VL: AYDMTQSPSTLSASVGDRVTITCQASESIYSGLAWYQQKPGKAPKLLIYAASDLASGVPSRFSGSGSGTEYTLTISSLQPDDFATYYCQQTWTDGGIDNPFGGGTKVEIKR
notes: Human gamma-1 CH1 (G1m17) and human C-kappa (K1m3); also called 4856gL3gH13
